± gives the uncertainty stated by the source.
assay: abundance fitness (aPCA) (normalised: wild type 0, dead -1); higher = more abundant; growth selection in yeast, the domain comes from the species named; conditions: Homo sapiens

Substance	abundance fitness
BAG family molecular chaperone regulator 3 W49M, O95817	-0.21 ± 0.18
BAG family molecular chaperone regulator 3 W49N, O95817	-0.204 ± 0.34
BAG family molecular chaperone regulator 3 W49P, O95817	-0.72 ± 0.25
BAG family molecular chaperone regulator 3 W49Q, O95817	-0.764 ± 0.42
BAG family molecular chaperone regulator 3 W49R, O95817	-0.226 ± 0.1
BAG family molecular chaperone regulator 3 W49S, O95817	-0.436 ± 0.12
BAG family molecular chaperone regulator 3 W49V, O95817	-0.665 ± 0.13
SAFB-like transcription modulator D24A, Q9NWH9	-0.217 ± 0.033
SAFB-like transcription modulator D24C, Q9NWH9	-0.226 ± 0.036
SAFB-like transcription modulator D24E, Q9NWH9	-0.003 ± 0.038
SAFB-like transcription modulator D24F, Q9NWH9	-0.466 ± 0.033
SAFB-like transcription modulator D24G, Q9NWH9	-0.282 ± 0.03
SAFB-like transcription modulator D24H, Q9NWH9	-0.145 ± 0.034
SAFB-like transcription modulator D24I, Q9NWH9	-0.693 ± 0.035
SAFB-like transcription modulator D24K, Q9NWH9	-0.157 ± 0.034
SAFB-like transcription modulator D24M, Q9NWH9	-0.229 ± 0.036
SAFB-like transcription modulator D24N, Q9NWH9	-0.098 ± 0.034
SAFB-like transcription modulator D24P, Q9NWH9	-0.598 ± 0.033
SAFB-like transcription modulator D24Q, Q9NWH9	-0.076 ± 0.037
SAFB-like transcription modulator D24R, Q9NWH9	-0.335 ± 0.033
SAFB-like transcription modulator D24S, Q9NWH9	-0.149 ± 0.032
SAFB-like transcription modulator D24T, Q9NWH9	-0.157 ± 0.033
SAFB-like transcription modulator D24V, Q9NWH9	-0.547 ± 0.033
SAFB-like transcription modulator D24W, Q9NWH9	-0.484 ± 0.039

Substance	abundance fitness
SAFB-like transcription modulator D24Y, Q9NWH9	-0.433 ± 0.034
SAFB-like transcription modulator D29A, Q9NWH9	-0.681 ± 0.25
SAFB-like transcription modulator D29C, Q9NWH9	-0.854 ± 0.22
SAFB-like transcription modulator D29E, Q9NWH9	-0.5 ± 0.13
SAFB-like transcription modulator D29G, Q9NWH9	-0.725 ± 0.096
SAFB-like transcription modulator D29I, Q9NWH9	-1.09 ± 0.43
SAFB-like transcription modulator D29K, Q9NWH9	-1.06 ± 0.33
SAFB-like transcription modulator D29M, Q9NWH9	-0.081 ± 0.13
SAFB-like transcription modulator D29N, Q9NWH9	-0.483 ± 0.063
SAFB-like transcription modulator D29P, Q9NWH9	-0.656 ± 0.097
SAFB-like transcription modulator D29Q, Q9NWH9	-0.084 ± 0.07
SAFB-like transcription modulator D29S, Q9NWH9	-0.755 ± 0.19
SAFB-like transcription modulator D29T, Q9NWH9	-0.509 ± 0.12
SAFB-like transcription modulator D29V, Q9NWH9	-0.717 ± 0.09
SAFB-like transcription modulator D29W, Q9NWH9	-0.882 ± 0.18
SAFB-like transcription modulator D29Y, Q9NWH9	-0.677 ± 0.089
SAFB-like transcription modulator D40A, Q9NWH9	-0.2 ± 0.046
SAFB-like transcription modulator D40C, Q9NWH9	-0.594 ± 0.12
SAFB-like transcription modulator D40E, Q9NWH9	-0.318 ± 0.086
SAFB-like transcription modulator D40F, Q9NWH9	-1 ± 0.39
SAFB-like transcription modulator D40G, Q9NWH9	-0.277 ± 0.069
SAFB-like transcription modulator D40H, Q9NWH9	-0.614 ± 0.24
SAFB-like transcription modulator D40I, Q9NWH9	-0.357 ± 0.092
SAFB-like transcription modulator D40K, Q9NWH9	-0.322 ± 0.099
